Experiments:
Details in all cases: remark: other sources report otherwise
[1] = biological target: HLA-B*0702 on T2-B7 cells (human); test: MHC stabilization assay on T2-B7 cells (flow cytometry), relative to a reference peptide
[2] = biological target: purified HLA-B*0801 (human); test: competition radioimmunoassay on purified HLA, radiolabeled standard peptide
[3] = biological target: purified HLA-B*3501 (human); test: as above
[4] = biological target: purified HLA-B*5301 (human); test: as above
[5] = biological target: purified HLA-B*0702 (human); test: as above
[6] = biological target: purified HLA-B*0702 (human); test: competition solid-phase radioimmunoassay on purified HLA-B7, radiolabeled standard peptide

| RA (relative avidity) [1] | IC50 [2] [nM] | IC50 [3] [nM] | IC50 [4] [nM] | IC50 [5] [nM] | IC50 [6] [nM] | Binder |
| --- | --- | --- | --- | --- | --- | --- |
| 4.7 | – | – | – | – | – | RPAEEATSL [hTRT peptide p277 (…)] |
| – | 37 | 1020 | 2200 | – | – | RPSFLLSSL [hTRT peptide p342 (…)] |
| – | 217 | – | – | 239 | 239 | DPRRLVQLL [hTRT peptide p444 (…)] |
